Laboratory results reported in patent US20220010021A1 (Sanofi, published 2022).
Numbering of substitutions follows the chain as printed. Names and notes keep the numbering of the source.

T1: human beta-Klotho (KLB) (human, UniProt Q86Z14 53-997)
T1 construct: bought recombinant protein, analyte of the BLI off-rate screen; also called human KLB
T1 sequence (looked up): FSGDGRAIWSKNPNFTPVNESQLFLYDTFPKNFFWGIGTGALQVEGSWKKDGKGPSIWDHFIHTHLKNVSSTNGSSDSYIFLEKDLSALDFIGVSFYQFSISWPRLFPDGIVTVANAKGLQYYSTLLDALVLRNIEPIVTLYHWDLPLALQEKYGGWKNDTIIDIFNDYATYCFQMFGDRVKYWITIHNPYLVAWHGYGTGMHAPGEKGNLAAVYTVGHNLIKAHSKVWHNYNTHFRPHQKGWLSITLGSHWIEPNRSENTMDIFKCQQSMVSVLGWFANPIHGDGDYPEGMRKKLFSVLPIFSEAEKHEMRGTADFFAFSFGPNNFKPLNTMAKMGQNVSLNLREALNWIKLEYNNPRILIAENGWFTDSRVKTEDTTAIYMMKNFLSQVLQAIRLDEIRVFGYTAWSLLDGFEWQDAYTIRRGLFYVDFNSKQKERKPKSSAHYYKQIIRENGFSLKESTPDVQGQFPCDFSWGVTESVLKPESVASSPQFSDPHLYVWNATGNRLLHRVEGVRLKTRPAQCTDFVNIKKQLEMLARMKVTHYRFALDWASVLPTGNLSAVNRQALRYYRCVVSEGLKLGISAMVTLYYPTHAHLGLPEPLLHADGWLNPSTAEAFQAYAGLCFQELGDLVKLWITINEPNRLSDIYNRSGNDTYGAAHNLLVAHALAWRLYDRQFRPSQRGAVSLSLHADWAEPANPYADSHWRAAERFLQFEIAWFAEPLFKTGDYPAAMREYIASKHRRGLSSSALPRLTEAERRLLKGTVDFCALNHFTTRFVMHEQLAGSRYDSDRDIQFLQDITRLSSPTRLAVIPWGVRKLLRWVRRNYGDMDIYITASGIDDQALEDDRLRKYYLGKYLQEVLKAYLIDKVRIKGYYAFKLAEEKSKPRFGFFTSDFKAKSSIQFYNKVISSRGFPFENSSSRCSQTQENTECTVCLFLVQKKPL

T2: human beta-Klotho (KLB) (human, UniProt Q86Z14 53-997)
T2 construct: the BLI off-rate screen was run with human and with monkey KLB; also called human KLB; ß-Klotho
T2 sequence (looked up): T1 sequence (looked up)

B1: 16H7 variant with light chain substitution Q88A (antibody, V domains shown)
VH: not shown
VL: SYVLTQPPSVSVAPGQTARITCGGNNIGSESVHWYQQKPGQAPVLVVYDDSDRPSGIPERFSGSNSGNTATLTISRVEAGDEADYYCAVWDGNSDHVVFGGGTKLTVLG
B2: 16H7 variant with light chain substitution Q88M (antibody, V domains shown)
VH: not shown
VL: B1 VL with A88M
B3: 16H7 variant with light chain substitution Q88G (antibody, V domains shown)
VH: not shown
VL: B1 VL with A88G
B4: 16H7 variant with light chain substitution Q88L (antibody, V domains shown)
VH: not shown
VL: B1 VL with A88L
B5: 16H7 variant with light chain substitution Q88S (antibody, V domains shown)
VH: not shown
VL: B1 VL with A88S
B6: 16H7 variant with single point mutation V98W in the light chain (antibody, V domains shown)
VH: not shown
VL: B1 VL with A88Q, V98W
notes: Tested from HEK293-F supernatant
B7: 16H7 variant with single point mutation V98Y in the light chain (antibody, V domains shown)
VH: not shown
VL: B1 VL with A88Q, V98Y
notes: as for B6
B8: human FGF21 (ligand)
chain: GHPIPDSSPLLQFGGQVRQRYLYTDDAQQTEAHLEIREDGTVGGAADQSPESLLQLKALKPGVIQILGVKTSRFLCQRPDGALYGSLHFDPEACSFRELLLEDGYNVYQSEAHGLPLHLPGNKSPHRDPAPRGPARFLPLPGLPPAPPEPPGILAPQPPDVGSSDPLSMVGPSQGRSPSYAS
B9: Ab0331 (antibody, human IgG4 S228P, lambda)
heavy: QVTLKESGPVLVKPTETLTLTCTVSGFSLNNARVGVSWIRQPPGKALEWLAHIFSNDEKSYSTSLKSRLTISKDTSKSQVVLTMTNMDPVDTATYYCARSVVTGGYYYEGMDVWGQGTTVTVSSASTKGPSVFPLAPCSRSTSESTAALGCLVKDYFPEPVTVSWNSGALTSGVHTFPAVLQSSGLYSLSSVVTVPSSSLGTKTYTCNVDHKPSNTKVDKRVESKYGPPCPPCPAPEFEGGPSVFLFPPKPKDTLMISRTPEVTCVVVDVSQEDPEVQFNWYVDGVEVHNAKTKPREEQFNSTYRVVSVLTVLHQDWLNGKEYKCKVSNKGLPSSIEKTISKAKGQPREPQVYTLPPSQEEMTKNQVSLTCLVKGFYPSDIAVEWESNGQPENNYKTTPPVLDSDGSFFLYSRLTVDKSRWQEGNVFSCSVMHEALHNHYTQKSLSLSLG
light: SYVLTQPPSVSVAPGQTARITCGGSNIGSESVHWYQQKPGQAPVLVVYSESDRPSGIPERFSGSNSGNTATLTISRVEAGDEADYYCQVWEGESDHVVFGGGTKLTVLGQPKANPTVTLFPPSSEELQANKATLVCLISDFYPGAVTVAWKADGSPVKAGVETTKPSKQSNNKYAASSYLSLTPEQWKSHRSYSCQVTHEGSTVEKTVAPTECS
B10: Ab0428 (antibody, human IgG1, lambda)
heavy: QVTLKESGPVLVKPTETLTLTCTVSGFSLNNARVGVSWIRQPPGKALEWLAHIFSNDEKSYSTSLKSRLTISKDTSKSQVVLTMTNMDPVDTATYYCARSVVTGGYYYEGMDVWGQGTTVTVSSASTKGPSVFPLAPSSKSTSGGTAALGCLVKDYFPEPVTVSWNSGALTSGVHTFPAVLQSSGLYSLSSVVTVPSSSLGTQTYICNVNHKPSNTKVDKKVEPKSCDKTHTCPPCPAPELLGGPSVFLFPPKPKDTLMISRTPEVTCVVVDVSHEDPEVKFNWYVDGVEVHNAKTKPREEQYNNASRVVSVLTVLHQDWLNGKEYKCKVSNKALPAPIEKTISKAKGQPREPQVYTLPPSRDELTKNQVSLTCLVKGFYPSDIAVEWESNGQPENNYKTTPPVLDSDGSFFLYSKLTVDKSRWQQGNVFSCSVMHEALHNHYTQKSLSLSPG
light: B9 light
B11: Ab0430 (antibody, human IgG1, lambda)
heavy: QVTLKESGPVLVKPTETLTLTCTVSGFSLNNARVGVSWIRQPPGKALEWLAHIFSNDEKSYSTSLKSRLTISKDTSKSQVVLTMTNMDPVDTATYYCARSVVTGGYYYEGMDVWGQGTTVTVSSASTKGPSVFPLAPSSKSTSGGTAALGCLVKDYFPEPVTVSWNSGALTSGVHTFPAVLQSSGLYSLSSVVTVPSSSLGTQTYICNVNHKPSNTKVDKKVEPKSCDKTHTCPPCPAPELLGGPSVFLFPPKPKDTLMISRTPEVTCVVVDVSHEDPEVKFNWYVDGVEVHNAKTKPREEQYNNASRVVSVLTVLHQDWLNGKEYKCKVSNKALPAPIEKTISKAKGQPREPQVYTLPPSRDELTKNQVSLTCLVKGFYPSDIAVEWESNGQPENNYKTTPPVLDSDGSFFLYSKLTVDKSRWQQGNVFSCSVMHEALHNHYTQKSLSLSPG
light: B9 light with S49E
B12: Ab0429 (antibody, human IgG1, lambda)
heavy: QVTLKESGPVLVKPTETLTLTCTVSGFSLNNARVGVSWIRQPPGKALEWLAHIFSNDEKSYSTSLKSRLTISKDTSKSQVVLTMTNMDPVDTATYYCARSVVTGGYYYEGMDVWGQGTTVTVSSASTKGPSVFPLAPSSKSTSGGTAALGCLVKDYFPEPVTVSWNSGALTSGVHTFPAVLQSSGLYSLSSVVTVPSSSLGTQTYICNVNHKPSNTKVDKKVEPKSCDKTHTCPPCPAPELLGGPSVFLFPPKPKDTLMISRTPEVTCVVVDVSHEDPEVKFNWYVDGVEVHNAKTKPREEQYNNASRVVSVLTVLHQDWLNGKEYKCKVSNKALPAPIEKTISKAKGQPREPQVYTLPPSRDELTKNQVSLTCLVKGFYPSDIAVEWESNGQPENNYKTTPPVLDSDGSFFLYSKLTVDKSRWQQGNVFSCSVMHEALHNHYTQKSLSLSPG
light: B9 light with E50A
B13: Ab0335 (antibody, human IgG4 S228P, lambda)
heavy: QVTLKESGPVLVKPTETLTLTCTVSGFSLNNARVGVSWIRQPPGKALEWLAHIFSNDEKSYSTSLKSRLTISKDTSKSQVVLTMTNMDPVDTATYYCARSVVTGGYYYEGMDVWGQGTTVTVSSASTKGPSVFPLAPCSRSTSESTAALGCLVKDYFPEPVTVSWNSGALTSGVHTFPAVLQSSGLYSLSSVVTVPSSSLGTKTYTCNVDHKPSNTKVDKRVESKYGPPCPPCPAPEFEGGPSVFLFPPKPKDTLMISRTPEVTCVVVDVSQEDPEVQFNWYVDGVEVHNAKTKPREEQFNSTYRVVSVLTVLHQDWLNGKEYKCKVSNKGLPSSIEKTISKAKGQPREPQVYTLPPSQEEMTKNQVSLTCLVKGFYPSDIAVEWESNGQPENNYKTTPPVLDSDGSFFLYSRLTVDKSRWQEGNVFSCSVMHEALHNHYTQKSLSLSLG
light: B9 light with E50A
B14: Ab0351 (antibody, human IgG4 S228P, lambda)
heavy: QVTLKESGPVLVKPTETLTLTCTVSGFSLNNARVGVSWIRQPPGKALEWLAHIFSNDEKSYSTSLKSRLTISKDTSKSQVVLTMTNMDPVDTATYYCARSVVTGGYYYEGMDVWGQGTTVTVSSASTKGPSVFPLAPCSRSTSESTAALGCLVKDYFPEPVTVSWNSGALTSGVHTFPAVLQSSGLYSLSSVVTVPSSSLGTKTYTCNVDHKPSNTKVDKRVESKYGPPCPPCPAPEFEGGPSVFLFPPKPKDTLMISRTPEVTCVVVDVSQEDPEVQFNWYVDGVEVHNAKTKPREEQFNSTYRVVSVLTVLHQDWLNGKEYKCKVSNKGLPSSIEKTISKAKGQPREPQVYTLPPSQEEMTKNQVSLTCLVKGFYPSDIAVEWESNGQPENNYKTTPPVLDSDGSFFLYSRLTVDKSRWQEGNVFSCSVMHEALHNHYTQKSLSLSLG
light: B9 light with S49E

What follows are binders tested against T1, human beta-Klotho (KLB) (assay: BLI off-rate screen).

| Binder | koff [s⁻¹] |
| --- | --- |
| B1 | 0.00011 |
| B2 | 9.9e-05 |
| B3 | 0.00017 |
| B4 | 9.9e-05 |

Each binder was assayed against cell surface receptor composed of FGFR1c and co-receptor beta-Klotho (KLB) on iLite FGF21 Assay Ready Cells (human, UniProt P11362 22-822; Q86Z14 1-1044) (assay: cell-based or functional assay).
Sequence of cell surface receptor composed of FGFR1c and co-receptor beta-Klotho (KLB) on iLite FGF21 Assay Ready Cells (P11362 22-822, chain 1 of 2): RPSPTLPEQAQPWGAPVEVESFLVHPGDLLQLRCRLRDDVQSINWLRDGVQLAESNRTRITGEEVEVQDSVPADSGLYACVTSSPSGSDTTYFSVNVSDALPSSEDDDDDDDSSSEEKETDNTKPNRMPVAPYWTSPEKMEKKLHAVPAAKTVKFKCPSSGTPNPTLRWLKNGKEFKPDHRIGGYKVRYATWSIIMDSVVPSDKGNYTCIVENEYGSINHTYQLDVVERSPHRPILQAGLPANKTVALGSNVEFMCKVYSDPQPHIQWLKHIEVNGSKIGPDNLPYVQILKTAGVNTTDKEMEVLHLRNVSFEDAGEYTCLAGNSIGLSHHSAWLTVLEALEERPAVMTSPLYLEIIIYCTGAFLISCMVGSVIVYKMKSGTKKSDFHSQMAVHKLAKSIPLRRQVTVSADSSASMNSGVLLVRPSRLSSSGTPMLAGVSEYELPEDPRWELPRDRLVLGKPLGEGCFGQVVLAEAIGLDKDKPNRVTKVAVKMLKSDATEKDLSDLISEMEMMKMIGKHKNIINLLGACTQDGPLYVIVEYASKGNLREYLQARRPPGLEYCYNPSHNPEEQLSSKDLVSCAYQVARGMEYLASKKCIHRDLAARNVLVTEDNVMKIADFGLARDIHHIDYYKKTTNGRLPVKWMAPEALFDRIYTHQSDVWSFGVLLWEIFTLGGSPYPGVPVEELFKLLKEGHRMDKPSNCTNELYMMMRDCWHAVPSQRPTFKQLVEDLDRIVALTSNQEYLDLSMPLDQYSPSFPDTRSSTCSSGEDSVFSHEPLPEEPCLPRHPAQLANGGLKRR
Sequence of cell surface receptor composed of FGFR1c and co-receptor beta-Klotho (KLB) on iLite FGF21 Assay Ready Cells (Q86Z14 whole entry, chain 2 of 2): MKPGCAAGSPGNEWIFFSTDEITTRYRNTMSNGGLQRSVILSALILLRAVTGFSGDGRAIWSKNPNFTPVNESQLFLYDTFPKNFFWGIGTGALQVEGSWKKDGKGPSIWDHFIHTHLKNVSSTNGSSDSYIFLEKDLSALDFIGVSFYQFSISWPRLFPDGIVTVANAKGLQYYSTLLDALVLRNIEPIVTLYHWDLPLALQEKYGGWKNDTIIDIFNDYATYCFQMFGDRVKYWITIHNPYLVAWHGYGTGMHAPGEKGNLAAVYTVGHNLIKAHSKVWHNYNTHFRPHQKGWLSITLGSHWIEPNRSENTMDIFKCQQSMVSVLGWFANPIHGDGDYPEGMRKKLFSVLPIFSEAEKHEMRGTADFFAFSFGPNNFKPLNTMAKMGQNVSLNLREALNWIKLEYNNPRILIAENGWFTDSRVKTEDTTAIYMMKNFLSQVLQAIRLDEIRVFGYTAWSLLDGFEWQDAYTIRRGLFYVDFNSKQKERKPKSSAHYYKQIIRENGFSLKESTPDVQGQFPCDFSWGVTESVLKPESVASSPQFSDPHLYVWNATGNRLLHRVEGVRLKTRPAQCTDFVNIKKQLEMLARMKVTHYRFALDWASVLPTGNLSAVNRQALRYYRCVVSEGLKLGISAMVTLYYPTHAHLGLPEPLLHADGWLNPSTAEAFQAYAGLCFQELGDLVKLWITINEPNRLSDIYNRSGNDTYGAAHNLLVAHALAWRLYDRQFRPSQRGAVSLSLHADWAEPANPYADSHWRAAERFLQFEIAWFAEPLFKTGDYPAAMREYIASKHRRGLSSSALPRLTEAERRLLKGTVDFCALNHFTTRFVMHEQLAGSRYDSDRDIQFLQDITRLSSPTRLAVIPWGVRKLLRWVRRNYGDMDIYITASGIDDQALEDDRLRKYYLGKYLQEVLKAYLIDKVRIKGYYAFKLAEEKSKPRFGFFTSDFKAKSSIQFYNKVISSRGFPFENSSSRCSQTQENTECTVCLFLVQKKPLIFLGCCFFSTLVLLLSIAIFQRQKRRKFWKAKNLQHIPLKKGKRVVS

| Binder | Mean E max [%] | Mean EC50 [pM] |
| --- | --- | --- |
| B1 | 108 | 133 |
| B2 | 90 | 104 |
| B3 | 110 | 129 |
| B5 | 104 | – |
| B4 | 107 | 134 |

Each binder was assayed against cell-surface receptor complex of human FGFR1c and beta-Klotho (KLB) on iLite FGF21 reporter cells (human, UniProt P11362 22-822; Q86Z14 1-1044) (assay: cell-based or functional assay).
Sequence of cell-surface receptor complex of human FGFR1c and beta-Klotho (KLB) on iLite FGF21 reporter cells (P11362 22-822, chain 1 of 2): as the sequence (P11362 22-822, chain 1 of 2) above
Sequence of cell-surface receptor complex of human FGFR1c and beta-Klotho (KLB) on iLite FGF21 reporter cells (Q86Z14 whole entry, chain 2 of 2): as the sequence (Q86Z14 whole entry, chain 2 of 2) above

| Binder | Mean E max (%), Luciferase gene reporter assay [%] | Mean EC50 (nM), Luciferase gene reporter assay [nM] |
| --- | --- | --- |
| B6 | 99 | 0.099 |
| B7 | 100 | 0.109 |

These binders were tested against human FGFR1c/KLB receptor complex on primary human adipocytes (human, UniProt P11362 22-822; Q86Z14 1-1044) (assay: cell-based or functional assay).
Sequence of human FGFR1c/KLB receptor complex on primary human adipocytes (P11362 22-822, chain 1 of 2): as the sequence (P11362 22-822, chain 1 of 2) above
Sequence of human FGFR1c/KLB receptor complex on primary human adipocytes (Q86Z14 whole entry, chain 2 of 2): as the sequence (Q86Z14 whole entry, chain 2 of 2) above

| Binder | In-Cell Western pERK EC50, primary human adipocytes [nmol/L] |
| --- | --- |
| B8 | 0.206 |
| B9 | 0.101 |
| B10 | 0.072 |
| B11 | 0.116 |
| B12 | 0.078 |
| B13 | 0.142 |
| B14 | 0.156 |

What follows are binders tested against T2, human beta-Klotho (KLB) (assay: BLI off-rate screening (Octet HTX), antibody from supernatant on anti-hIgG Fc capture sensors, KLB 5 nmol/L as analyte).

| Binder | koff [s⁻¹] |
| --- | --- |
| B6 | 5.6e-05 |
| B7 | 5.9e-05 |
